Measurements published in PMC8834124, “Enzymatic Preparation of Gentiooligosaccharides by a Thermophilic and Thermostable β-Glucosidase at a High Substrate Concentration” (Foods, 2022).

Key:
Assay in all cases: purified protein
Format in all cases: biochemical, Thermotoga sp. KOL6
[1] = tested on: OC[C@H]1O[C@@H](O[C@H]2C(O)O[C@H](CO)[C@@H](O)[C@@H]2O)[C@H](O)[C@@H](O)[C@@H]1O
[2] = tested on: OC[C@H]1O[C@@H](OC[C@H]2OC(O)[C@H](O)[C@@H](O)[C@@H]2O)[C@H](O)[C@@H](O)[C@@H]1O
[3] = tested on: OC[C@H]1O[C@@H](O[C@H]2[C@H](O)[C@@H](CO)OC(O)[C@@H]2O)[C@H](O)[C@@H](O)[C@@H]1O
[4] = tested on: O=[N+]([O-])c1ccc(O[C@@H]2O[C@H](CO)[C@@H](O)[C@H](O)[C@H]2O)cc1

Substance: β-glucosidase TsBgl1 (Thermotoga sp. KOL6)
- Km [1]: 3950 µM
- kcat [1]: 218 s⁻¹
- kcat/Km [1]: 55300 M⁻¹ s⁻¹
- Km [2]: 3680 µM
- kcat [2]: 240 s⁻¹
- kcat/Km [2]: 65200 M⁻¹ s⁻¹
- Km [3]: 2170 µM
- kcat [3]: 295 s⁻¹
- kcat/Km [3]: 136000 M⁻¹ s⁻¹
- Km [4]: 240 µM
- kcat [4]: 124 s⁻¹
- kcat/Km [4]: 509000 M⁻¹ s⁻¹
